For 2 substances, Ka results are on record in paper PMC8100141.

Data set [1] deals with DENV3 NS5 wild type (Dengue virus serotype 3) (UniProt Q5UB51). The data set is described as follows: fluorescence competition. Particulars: Fluorescence: 50 mM Tris-HCl pH 7.5, 100 mM NaCl, 1 mM MgCl2, 1 mM DTT, 10% glycerol; EMSA: 20 mM Tris pH 7.4, 150 mM NaCl, 2 mM MgCl2, 5% glycerol, room ….
Data set [2] has the same target. The data set is described as follows: fluorescence titration. To be noted: all adenosines are 1,N6-ethenoadenosine; Fluorescence: 50 mM Tris-HCl pH 7.5, 100 mM NaCl, 1 mM MgCl2, 1 mM DTT, 10% glycerol; EMSA: 20 mM Tris pH 7.4, 150 mM NaCl, 2 mM MgCl2, 5% glycerol, room ….

Sequence of DENV3 NS5 wild type (Dengue virus serotype 3) (Q5UB51 2491-3390): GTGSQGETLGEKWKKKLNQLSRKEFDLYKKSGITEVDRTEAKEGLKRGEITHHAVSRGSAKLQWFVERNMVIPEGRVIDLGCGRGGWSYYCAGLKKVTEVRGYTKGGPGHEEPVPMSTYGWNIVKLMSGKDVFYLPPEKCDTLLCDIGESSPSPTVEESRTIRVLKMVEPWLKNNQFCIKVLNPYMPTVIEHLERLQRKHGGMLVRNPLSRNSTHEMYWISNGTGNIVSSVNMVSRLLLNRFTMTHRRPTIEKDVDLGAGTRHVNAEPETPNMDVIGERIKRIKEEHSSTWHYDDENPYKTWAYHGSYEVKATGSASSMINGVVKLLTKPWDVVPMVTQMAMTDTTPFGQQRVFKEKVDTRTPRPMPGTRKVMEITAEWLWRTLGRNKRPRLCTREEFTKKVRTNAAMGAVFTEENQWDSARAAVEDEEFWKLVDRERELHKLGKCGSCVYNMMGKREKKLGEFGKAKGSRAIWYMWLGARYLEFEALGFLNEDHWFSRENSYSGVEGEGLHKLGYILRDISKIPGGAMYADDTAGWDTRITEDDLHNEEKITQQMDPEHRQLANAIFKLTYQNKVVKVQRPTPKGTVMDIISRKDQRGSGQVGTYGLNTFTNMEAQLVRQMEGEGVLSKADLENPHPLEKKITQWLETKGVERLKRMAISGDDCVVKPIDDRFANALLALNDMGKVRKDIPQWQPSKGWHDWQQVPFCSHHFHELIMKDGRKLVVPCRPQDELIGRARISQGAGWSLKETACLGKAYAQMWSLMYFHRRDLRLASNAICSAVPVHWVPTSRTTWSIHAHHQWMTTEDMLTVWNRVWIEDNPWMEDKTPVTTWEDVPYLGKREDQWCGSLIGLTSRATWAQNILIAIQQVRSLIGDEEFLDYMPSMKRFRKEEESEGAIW

For tRNA-SLADENV, the Ka in data set [1] stood at 4.8e+06 M⁻¹. The substance AAAAAAAAAAAAAAAAAAAA [εA(pεA)19] yielded a Ka in data set [2] of 2.1e+06 M⁻¹.
